Earlier results, collected in PMC9481538, “The interaction between LC8 and LCA5 reveals a novel oligomerization function of LC8 in the ciliary-centrosome system” (Scientific Reports, 2022).

B1: SWA: known LC8 binding partner, literature (protein, UniProt P40688 1-548, looked up)
Protein swallow: MSLQDESFPTDELFDQLNNLSSSGARNTWFAEHHKPAVFERDTAPFLEICYADPDFDADGDVANKSAKTCVSDPVGRDQEDEDDYDEDVDGDDHKLGCEKAPLGSGRSSKAVSYQDIHSAYTKRRFQHVTSKVGQYIAEIQAQDQKRRNVKFAGFQRVNSMPESLTPTLQQVYVHDGDFKVDKNCQTHSNSDSNYNSNSNNSSSSFDRLLAENESLQQKINSLRVEAKRLQGFNEYVQERLDRKTDDFVKMKCNFETLRTELSECQQKLRRQQDNSQHHFMYHIRSATSAKATQTDFLVDTIPASGNVLVTPHPLGDLTYNSSKGSIELALLSVAPSARVAQNPVQVQRAIHPQSLDFSSVSTEADGSGSGEHRVETSSRALVRRTPAPNNSETSQPSSNDSAIEVEAHEEERPSSRRQWEQQGELISPRQWGQHEGMYYFDKRNNRVIEVMGFNISQGRNQSHDTIHNQSINDSQTRLLVHSMSMSHLEAHDHFRSKRTTLGSRMLRFLGPCVRCRNGDPLNRSNVTYKDGLPAMPEEEFVDQRNQR
B2: ASCIZ: known LC8 binding partner, literature (protein, UniProt O43313 1-823, looked up)
ATM interactor: MAASEAAAAAGSAALAAGARAVPAATTGAAAAASGPWVPPGPRLRGSRPRPAGATQQPAVPAPPAGELIQPSVSELSRAVRTNILCTVRGCGKILPNSPALNMHLVKSHRLQDGIVNPTIRKDLKTGPKFYCCPIEGCPRGPERPFSQFSLVKQHFMKMHAEKKHKCSKCSNSYGTEWDLKRHAEDCGKTFRCTCGCPYASRTALQSHIYRTGHEIPAEHRDPPSKKRKMENCAQNQKLSNKTIESLNNQPIPRPDTQELEASEIKLEPSFEDSCGSNTDKQTLTTPPRYPQKLLLPKPKVALVKLPVMQFSVMPVFVPTADSSAQPVVLGVDQGSATGAVHLMPLSVGTLILGLDSEACSLKESLPLFKIANPIAGEPISTGVQVNFGKSPSNPLQELGNTCQKNSISSINVQTDLSYASQNFIPSAQWATADSSVSSCSQTDLSFDSQVSLPISVHTQTFLPSSKVTSSIAAQTDAFMDTCFQSGGVSRETQTSGIESPTDDHVQMDQAGMCGDIFESVHSSYNVATGNIISNSLVAETVTHSLLPQNEPKTLNQDIEKSAPIINFSAQNSMLPSQNMTDNQTQTIDLLSDLENILSSNLPAQTLDHRSLLSDTNPGPDTQLPSGPAQNPGIDFDIEEFFSASNIQTQTEESELSTMTTEPVLESLDIETQTDFLLADTSAQSYGCRGNSNFLGLEMFDTQTQTDLNFFLDSSPHLPLGSILKHSSFSVSTDSSDTETQTEGVSTAKNIPALESKVQLNSTETQTMSSGFETLGSLFFTSNETQTAMDDFLLADLAWNTMESQFSSVETQTSAEPHTVSNF
B3: DYNC1I1: known LC8 binding partner, literature (protein, UniProt O14576 2-645, looked up)
Cytoplasmic dynein 1 …: SDKSDLKAELERKKQRLAQIREEKKRKEEERKKKEADMQQKKEPVQDDSDLDRKRRETEALLQSIGISPEPPLVQPLHFLTWDTCYFHYLVPTPMSPSSKSVSTPSEAGSQDSGDLGPLTRTLQWDTDPSVLQLQSDSELGRRLHKLGVSKVTQVDFLPREVVSYSKETQTPLATHQSEEDEEDEEMVESKVGQDSELENQDKKQEVKEAPPRELTEEEKQQILHSEEFLIFFDRTIRVIERALAEDSDIFFDYSGRELEEKDGDVQAGANLSFNRQFYDEHWSKHRVVTCMDWSLQYPELMVASYNNNEDAPHEPDGVALVWNMKFKKTTPEYVFHCQSSVMSVCFARFHPNLVVGGTYSGQIVLWDNRSHRRTPVQRTPLSAAAHTHPVYCVNVVGTQNAHNLITVSTDGKMCSWSLDMLSTPQESMELVYNKSKPVAVTGMAFPTGDVNNFVVGSEEGTVYTACRHGSKAGIGEVFEGHQGPVTGINCHMAVGPIDFSHLFVTSSFDWTVKLWTTKHNKPLYSFEDNADYVYDVMWSPVHPALFACVDGMGRLDLWNLNNDTEVPTASVAIEGASALNRVRWAQAGKEVAVGDSEGRIWVYDVGELAVPHNDEWTRFARTLVEIRANRADSEEEGTVELSA

Molecular target: T1, LC8 (Homo sapiens, UniProt Q96FJ2)
T1 construct: 6xHis (N); made in house; host or cells: E. coli BL21 (DE3) Rosetta
Settings: literature, ref (6)-(10) of supplement, cited from earlier work; for Number of monomeric LC8 in complex / Number of monomeric binding partners in complex: composition of complexes
From the text: According to the standard model of LC8 interactions, the dimeric interface of LC8 presents two interaction sites for partners which also form dimers, implying a 1:1 stoichiometry. Partners with two adjacent binding motifs, like ANA2, follow a 1:2 stoichiometry by binding two LC8[18]. Intriguingly, we observed a 2:1 LCA5:LC8 stoichiometry for the ΔCQS and the ΔVQT mutants, which means that one LC8 dimer binds four LCA5 chains (Supplementary Table S1). A reasonable interpretation is that the native LCA5 is dimeric and thus a pair of LCA5 dimers bind to one dimeric LC8. In such a situation, one i ... || page 10: Composition of complexes Number of LC8 Number of Ratio of LCA5 LC8 binding monomeric binding monomeric LC8 in monomers to LC8 Gene name sites partners in complex complex monomers SWA (6) 1 2 2 1:1 DYNC1I1 (7) 1 2 2 1:1 WDR34-WDR60 3 1+1 6 1:3 (8) ANA2 (9) 2 2 4 1:2 ASCIZ (10) 11 2 22 1:11 sLCA5-WT 2 4 4 1:1 sLCA5-single 1 4 2 2:1 mutants Supplementary Table S1. Stoichiometries of various LC8 binding partners in complex with LC8. Known LC8 binding partners according to literature data always form dimers upon LC8 binding. The stoichiometry is basically 1:1 in case of one LC8 binding sit ...

T1 sequence (Q96FJ2 whole entry): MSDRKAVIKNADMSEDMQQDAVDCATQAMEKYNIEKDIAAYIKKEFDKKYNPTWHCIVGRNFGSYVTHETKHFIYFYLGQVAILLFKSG

Molecule | Number of monomeric LC8 in complex | Number of monomeric binding partners in complex | LC8 binding sites
B1 | 2 | 2 | 1
B2 | 22 | 2 | 11
B3 | 2 | 2 | 1
